Assay [1] addresses YF17D VLPs containing only E and M proteins (yellow fever virus, strain 17D). The assay can be described thus: BLI.
The target of assay [2] is YF17D virus particles (live-attenuated YFV 17D) (yellow fever virus, strain 17D). The assay can be described thus: BLI.

As a reminder, the Kd is the free concentration of one partner at which half of the binding sites on the other are occupied at equilibrium, for simple one-to-one binding.

Turning to “Fc-tagged LRP8-LBD (LRP8 LA1237 with a C-terminal human IgG Fc) (Fc fusion)”, the dissociation constant Kd in assay [1] is 0.3 µM; in assay [2] it was 0.46 µM.

The record behind these values is article doi:10.1101/2025.10.28.685229.
